For this test, the target named is Spike proteins of the wild-type Wuhan-Hu-1 strain and the D614G, B.1.1.7, B.1.351, P.1, B.1.526 and. Briefly: cell-based or functional assay.

B1: Mab #25 (antibody, V domains shown)
VH: EVQLVESGAEVKKPGESLKISCKGSGYTFTRYWIGWVRQMPGKGLEWMGIIYPGDSDTRYSPSFQGHVTISADKSISTAYLQWNSLKASDTAMYYCARLPQYCSNGVCQRWFDPWGQGTLVTVSS
VL: EIVLTQSPSSVSASVGDRVTITCRASQGISSWLAWYQQKPGKAPKLLIYAASSLQSGVPSRFSGSGSGTDFTLTISSLQPEDFATYYCQQGNSFPYTFGQGTNLEIK
As for B1, the IC50, infectivity assays using pseudoviruses fell in the range of 0.05 to 0.2 µg/mL.

The values are drawn from patent US20240400651A1.
